Experimental data from article PMC3317499 (2012).

B1: Myc-Mal-TIR wild type (TIR domain of human MyD88 adaptor-like protein, residues 79-221, double-tagged with His6 and Myc) [human] / GST-TLR4-TIR (TIR domain of human TLR4, residues 670-839, GST fusion) [human] (parent complex)
chain 1: SSRWSKDYDVCVCHSEEDLVAAQDLVSYLEGSTASLRCFLQLRDATPGGAIVSELCQALSSSHCRVLLITPGFLQDPWCKYQMLQALTEAPGAEGCTIPLLSGLSRAAYPPELRFMYYVDGRGPDGGFRQVKEAVMRYLQTLS
chain 2: GENIYDAFVIYSSQDEDWVRNELVKNLEEGVPPFQLCLHYRDFIPGVAIAANIIHEGFHKSRKVIVVVSQHFIQSRWCIFEYEIAQTWQFLSSRAGIIFIVLQKVEKTLLRQQVELYRLLSRNTYLEWEDSVLGRHIFWRRLRKALLDGKSWNPEGTVGTGCNWQEATSI
B2: Myc-Mal-TIR wild type (TIR domain of human MyD88 adaptor-like protein, residues 79-221, double-tagged with His6 and Myc) [human] / GST-MyD88-TIR (TIR domain of human MyD88, residues 148-296, GST fusion) [human] (parent complex)
chain 1: B1 chain 1
chain 2: TTLDDPLGHMPERFDAFICYCPSDIQFVQEMIRQLEQTNYRLKLCVSDRDVLPGTCVWSIASELIEKRCRRMVVVVSDDYLQSKECDFQTKFALSLSPGAHQKRLIPIKYKAMKKEFPSILRFITVCDYTNPCTKSWFWTRLAKALSLP

Variants of: B1
Assay: GST pull-down, quantified Western blot; n = 3 separate experiments; parent: 1; read off a plot

ratio to parent	Variant
~0.39	chain 1 SSRWSKDYDVCVCHSEEDLVAAQDLVSYLAGSTASLRCFLQLRDATPGGAIVSELCQALSSSHCRVLLITPGFLQDPWCKYQMLQALTEAPGAEGCTIPLLSGLSRAAYPPELRFMYYVDGRGPDGGFRQVKEAVMRYLQTLS [chain 1 E30A]
~0.24	chain 1 SSRWSKDYDVCVCHSEEDLVAAQDLVSYLEGSTASLRCALQLRDATPGGAIVSELCQALSSSHCRVLLITPGFLQDPWCKYQMLQALTEAPGAEGCTIPLLSGLSRAAYPPELRFMYYVDGRGPDGGFRQVKEAVMRYLQTLS [chain 1 F39A]

Variants of: B2
Assay: as above

ratio to parent	Variant
~0.42	chain 1 F39A
~0.76	chain 1 E30A
